The MegaScale stability set (Tsuboyama et al. 2023)

B1: r4_43_TrROS_Hall (parent)
chain: DLVTIKVPLENLEEIKKAAEKAGFKIVSISYDKENKEVTIVIEKKK
B2: 6YSE (parent)
chain: HERALMVNRLQKLTRMLRVHPDPKWKQEQQELIKRLK

Variants of: B1
Experiment: folding stability dG (cDNA display proteolysis); higher = more stable
Conditions: PBS, room temperature

Variant | folding stability dG
V3R | 3.4 kcal/mol
V3Q | 3.65 kcal/mol
V3M | 3.66 kcal/mol
V3C | 3.72 kcal/mol
V3F | 4.06 kcal/mol
V3G | 3.13 kcal/mol
V3T | 3.66 kcal/mol
V3W | 4.34 kcal/mol
V3E | 3.1 kcal/mol
V3S | 3.62 kcal/mol
V3D | 3.18 kcal/mol
V3A | 3.33 kcal/mol
V3H | 3.69 kcal/mol
V3K | 3.45 kcal/mol
V3I | 3.36 kcal/mol
V3L | 3.62 kcal/mol
V3P | 2.93 kcal/mol
V3Y | 4.03 kcal/mol
V3N | 3.25 kcal/mol
K17E | 3.45 kcal/mol
K17Y | 4.27 kcal/mol
K17T | 3.65 kcal/mol
K17S | 3.72 kcal/mol
K17A | 3.56 kcal/mol
K17V | 3.69 kcal/mol
K17C | 3.75 kcal/mol

Variant | folding stability dG
K17L | 3.73 kcal/mol
K17P | 2.14 kcal/mol
K17H | 3.83 kcal/mol
K17W | 4.21 kcal/mol
K17F | 4 kcal/mol
K17I | 3.8 kcal/mol
K17R | 3.43 kcal/mol
K17M | 3.82 kcal/mol
K17Q | 3.75 kcal/mol
K17N | 3.17 kcal/mol
K17G | 3.73 kcal/mol
K17D | 3.44 kcal/mol
T4I | 3.54 kcal/mol
T4S | 3.78 kcal/mol
T4E | 3.5 kcal/mol
T4D | 2.98 kcal/mol
T4M | 3.65 kcal/mol
T4R | 3.52 kcal/mol
T4G | 3.14 kcal/mol
T4V | 3.48 kcal/mol
T4A | 3.92 kcal/mol
T4W | 3.88 kcal/mol
T4C | 3.44 kcal/mol
T4P | 3.02 kcal/mol
T4L | 3.46 kcal/mol
T4N | 3.45 kcal/mol

Variant | folding stability dG
T4Q | 3.38 kcal/mol
T4F | 3.68 kcal/mol
T4H | 3.64 kcal/mol
T4K | 3.56 kcal/mol
T4Y | 4.13 kcal/mol
N11S | 3.42 kcal/mol
N11V | 3.87 kcal/mol
N11M | 3.51 kcal/mol
N11I | 3.73 kcal/mol
N11A | 3.83 kcal/mol
N11C | 3 kcal/mol
N11G | 3.34 kcal/mol
N11R | 4.15 kcal/mol
N11T | 3.59 kcal/mol
N11F | 3.59 kcal/mol
N11L | 3.67 kcal/mol
N11Y | 4.11 kcal/mol
N11Q | 3.76 kcal/mol
N11W | 3.63 kcal/mol
N11K | 3.65 kcal/mol
N11E | 3.27 kcal/mol
N11P | 2.5 kcal/mol
N11D | 3.4 kcal/mol
N11H | 3.83 kcal/mol
L12G | 3.16 kcal/mol
L12K | 3.03 kcal/mol

Variant | folding stability dG
L12V | 3.56 kcal/mol
L12S | 3.38 kcal/mol
L12N | 2.46 kcal/mol
L12P | 1.92 kcal/mol
L12R | 2.8 kcal/mol
L12W | 3.67 kcal/mol
L12T | 3.23 kcal/mol
L12E | 3.55 kcal/mol
L12Y | 3.64 kcal/mol
L12M | 3.77 kcal/mol
L12A | 3.63 kcal/mol
L12I | 3.73 kcal/mol
L12H | 3.41 kcal/mol
L12D | 2.46 kcal/mol
L12Q | 3.25 kcal/mol
L12F | 3.75 kcal/mol
I5V | 3.79 kcal/mol
I5D | 2.34 kcal/mol
I5A | 3.14 kcal/mol
I5Q | 3.15 kcal/mol
I5G | 1.98 kcal/mol
I5W | 4.23 kcal/mol
I5P | 1.48 kcal/mol
I5N | 2.61 kcal/mol
I5Y | 4.42 kcal/mol
I5K | 3.27 kcal/mol

Variant | folding stability dG
I5H | 3.23 kcal/mol
I5E | 2.86 kcal/mol
I5S | 2.9 kcal/mol
I5M | 3.79 kcal/mol
I5L | 4.01 kcal/mol
I5F | 4.32 kcal/mol
I5R | 3.1 kcal/mol
I5C | 3.01 kcal/mol
I5T | 3.42 kcal/mol
D1G | 3.47 kcal/mol
D1H | 3.83 kcal/mol
D1M | 4.1 kcal/mol
D1P | 3.56 kcal/mol
D1W | 4.07 kcal/mol
D1Y | 3.87 kcal/mol
D1Q | 3.82 kcal/mol
D1N | 3.79 kcal/mol
D1T | 3.83 kcal/mol
D1R | 3.42 kcal/mol
D1V | 4 kcal/mol
D1I | 3.87 kcal/mol
D1K | 3.81 kcal/mol
D1E | 3.66 kcal/mol
D1C | 3.7 kcal/mol
D1A | 3.81 kcal/mol
D1F | 3.9 kcal/mol

Variant | folding stability dG
D1S | 3.84 kcal/mol
D1L | 3.84 kcal/mol
E10L | 3.59 kcal/mol
E10F | 3.75 kcal/mol
E10A | 3.8 kcal/mol
E10T | 3.75 kcal/mol
E10D | 3.29 kcal/mol
E10C | 3.35 kcal/mol
E10Y | 3.77 kcal/mol
E10P | 3.48 kcal/mol
E10M | 4.03 kcal/mol
E10N | 4.02 kcal/mol
E10S | 3.85 kcal/mol
E10Q | 3.52 kcal/mol
E10V | 3.68 kcal/mol
E10H | 3.41 kcal/mol
E10K | 3.61 kcal/mol
E10W | 3.79 kcal/mol
E10G | 3.58 kcal/mol
E10I | 3.86 kcal/mol
E10R | 3.72 kcal/mol
E13A | 3.28 kcal/mol
E13F | 3.99 kcal/mol
E13V | 3.61 kcal/mol
E13I | 3.69 kcal/mol
E13H | 3.55 kcal/mol

Variant | folding stability dG
E13M | 3.68 kcal/mol
E13Y | 3.77 kcal/mol
E13T | 3.46 kcal/mol
E13N | 3.6 kcal/mol
E13C | 3.74 kcal/mol
E13P | 3.52 kcal/mol
E13S | 3.54 kcal/mol
E13D | 3.64 kcal/mol
E13Q | 3.6 kcal/mol
E13G | 3.63 kcal/mol
E13K | 3.62 kcal/mol
E13R | 3.2 kcal/mol
E13W | 4.08 kcal/mol
E13L | 3.9 kcal/mol
E14Q | 3.56 kcal/mol
E14N | 3.83 kcal/mol
E14Y | 3.75 kcal/mol
E14M | 3.89 kcal/mol
E14I | 3.71 kcal/mol
E14S | 3.7 kcal/mol
E14D | 3.68 kcal/mol
E14A | 3.78 kcal/mol
E14V | 3.71 kcal/mol
E14P | 3.95 kcal/mol
E14H | 4.06 kcal/mol
E14C | 4.03 kcal/mol

Variant | folding stability dG
E14W | 3.86 kcal/mol
E14K | 3.43 kcal/mol
E14G | 3.86 kcal/mol
E14R | 3.78 kcal/mol
E14F | 3.99 kcal/mol
E14T | 3.76 kcal/mol
E14L | 3.53 kcal/mol
I15A | 4.01 kcal/mol
I15Y | 3.88 kcal/mol
I15D | 2.44 kcal/mol
I15T | 3.38 kcal/mol
I15N | 3.08 kcal/mol
I15G | 3.06 kcal/mol
I15W | 4.14 kcal/mol
I15Q | 3.58 kcal/mol
I15K | 3.37 kcal/mol
I15M | 3.42 kcal/mol
I15S | 3.41 kcal/mol
I15P | 1.54 kcal/mol
I15H | 3.73 kcal/mol
I15R | 3.42 kcal/mol
I15L | 3.71 kcal/mol
I15E | 3.39 kcal/mol
I15F | 4.13 kcal/mol
I15C | 3.45 kcal/mol
I15V | 3.87 kcal/mol

Variant | folding stability dG
L2R | 3.58 kcal/mol
L2W | 3.78 kcal/mol
L2V | 3.91 kcal/mol
L2T | 3.93 kcal/mol
L2P | 3.23 kcal/mol
L2S | 3.39 kcal/mol
L2Y | 4.08 kcal/mol
L2F | 3.76 kcal/mol
L2D | 3.35 kcal/mol
L2K | 3.52 kcal/mol
L2Q | 3.85 kcal/mol
L2H | 3.43 kcal/mol
L2E | 3.45 kcal/mol
L2M | 3.66 kcal/mol
L2G | 3.42 kcal/mol
L2I | 3.13 kcal/mol
L2A | 3.4 kcal/mol
L2N | 3.23 kcal/mol
L2C | 3.41 kcal/mol
K16F | 3.62 kcal/mol
K16H | 3.29 kcal/mol
K16S | 3.58 kcal/mol
K16N | 3.35 kcal/mol
K16C | 3.47 kcal/mol
K16D | 2.66 kcal/mol
K16E | 3.29 kcal/mol

Variant | folding stability dG
K16A | 3.75 kcal/mol
K16Y | 4.02 kcal/mol
K16Q | 3.57 kcal/mol
K16V | 3.6 kcal/mol
K16T | 3.88 kcal/mol
K16R | 3.37 kcal/mol
K16P | 1.97 kcal/mol
K16G | 3.4 kcal/mol
K16W | 3.8 kcal/mol
K16I | 3.9 kcal/mol
K16M | 3.58 kcal/mol
K16L | 3.61 kcal/mol
V7W | 3.44 kcal/mol
V7K | 3.01 kcal/mol
V7C | 3.66 kcal/mol
V7H | 3.12 kcal/mol
V7I | 3.6 kcal/mol
V7A | 3.81 kcal/mol
V7G | 3.46 kcal/mol
V7F | 3.46 kcal/mol
V7Y | 3.24 kcal/mol
V7R | 3.3 kcal/mol
V7D | 1.97 kcal/mol
V7P | 2.19 kcal/mol
V7E | 2.93 kcal/mol
V7M | 3.63 kcal/mol

Variant | folding stability dG
V7Q | 3.04 kcal/mol
V7S | 3.71 kcal/mol
V7N | 2.53 kcal/mol
V7L | 3.51 kcal/mol
V7T | 3.57 kcal/mol
P8W | 3.7 kcal/mol
P8V | 3.72 kcal/mol
P8D | 3.39 kcal/mol
P8C | 3.58 kcal/mol
P8S | 3.49 kcal/mol
P8K | 3.71 kcal/mol
P8R | 3.27 kcal/mol
P8A | 3.6 kcal/mol
P8L | 3.95 kcal/mol
P8M | 3.81 kcal/mol
P8Q | 3.53 kcal/mol
P8I | 3.5 kcal/mol
P8E | 3.19 kcal/mol
P8G | 3.77 kcal/mol
P8H | 4.12 kcal/mol
P8F | 3.75 kcal/mol
P8T | 3.68 kcal/mol
P8Y | 3.62 kcal/mol
P8N | 3.58 kcal/mol
L9F | 3.69 kcal/mol
L9A | 3.66 kcal/mol

Variant | folding stability dG
L9D | 3.42 kcal/mol
L9Q | 3.49 kcal/mol
L9G | 3.08 kcal/mol
L9N | 3.58 kcal/mol
L9K | 3.66 kcal/mol
L9V | 3.6 kcal/mol
L9I | 3.61 kcal/mol
L9Y | 3.39 kcal/mol
L9S | 3.47 kcal/mol
L9W | 3.92 kcal/mol
L9P | 3.53 kcal/mol
L9M | 3.53 kcal/mol
L9H | 3.57 kcal/mol
L9E | 3.46 kcal/mol
L9R | 3.59 kcal/mol
L9T | 3.46 kcal/mol
K6D | 2.82 kcal/mol
K6C | 3.32 kcal/mol
K6L | 3.31 kcal/mol
K6I | 3.75 kcal/mol
K6P | 2.42 kcal/mol
K6R | 3.84 kcal/mol
K6N | 3.37 kcal/mol
K6V | 3.5 kcal/mol
K6H | 3.71 kcal/mol
K6Q | 3.04 kcal/mol

Variant | folding stability dG
K6Y | 3.48 kcal/mol
K6G | 2.98 kcal/mol
K6S | 3.52 kcal/mol
K6A | 3.51 kcal/mol
K6M | 3.31 kcal/mol
K6F | 3.62 kcal/mol
K6W | 3.39 kcal/mol
K6T | 3.77 kcal/mol
K6E | 2.83 kcal/mol
A18G | 3.34 kcal/mol
A18C | 3.97 kcal/mol
A18L | 3.55 kcal/mol
A18H | 3.77 kcal/mol
A18I | 3.67 kcal/mol
A18F | 3.45 kcal/mol
A18D | 3.57 kcal/mol
A18K | 3.86 kcal/mol
A18E | 3.65 kcal/mol

Variants of: B2
Experiment: as above
Conditions: PBS, room temperature

Variant | folding stability dG
K37Y | 1.74 kcal/mol
K37T | 1.25 kcal/mol
K37W | 1.43 kcal/mol
K37V | 0.95 kcal/mol
